± gives the standard error. This sample holds only a part of the variants without activity.
B1: glmS ribozyme (parent)
chain: AUAAAAGCGCCAGAACUACAGAAAUGUAGUUGACGAGGAGGAGGUUUAUCGAAUUUUCGGCGGAUGCCUCCAAA

Variants of: B1
Experiment: self-cleavage kobs at 2500 uM GlcN6P; higher = faster cleavage; RNA array
Settings: with glucosamine-6-phosphate
In short: (§1)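 Tiles of sequenced MiSeq chips were imaged over ~14 h at 37 °C. On them, barcoded ribozyme variants had been transcribed in situ by E. coli RNA polymerase and were tracked via a hybridised Cy3 probe while glucosamine-6-phosphate (40 μM to 10 mM) in HEPES/KCl/Mg(OAc)2 buffer flowed in. Per-tile medians, normalised to baseline and to non-cleaving reference variants, were fit to one- or two-exponential decays for kobs, and weighted Michaelis–Menten fits gave kcat and KM.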

| Variant | self-cleavage kobs at 2500 uM GlcN6P [s⁻¹] |
| --- | --- |
| G35C C68U C71A | < 1e-05 |
| G32A U45C | 0.000112 ± 3.8e-05 |
| A33G U45G U47G | < 1e-05 |
| G32A A39C C50U | < 1e-05 |
| G35C A42G U49C | < 1e-05 |
| A33U U55G C58G | < 1e-05 |
| G37A A39C G59C | < 1e-05 |
| G35U C50G G66A | 7.38e-05 ± 3.6e-05 |
| A36U A42G G60U C70A | < 1e-05 |
| A39G G40U A52G | 6.69e-05 ± 2.4e-05 |
| A36G G43A A48U A52G | < 1e-05 |
| G40A C61G G66C C67A | < 1e-05 |
| G32U A39C | 4.98e-05 ± 1.5e-05 |
| G41A A52C C67G C71A | < 1e-05 |
| U31C C34G A39U A42G U47C C70A | < 1e-05 |
| G38A G41A C50G C61U | < 1e-05 |
| U30G A53U C58G | 0.000116 ± 3.9e-05 |
| U31C A42U A52C C71A | < 1e-05 |
| C34G G43C U46G U69G | < 1e-05 |
| C34G G35U G43U | < 1e-05 |
| G38A A42G C68G | < 1e-05 |

| Variant | self-cleavage kobs at 2500 uM GlcN6P [s⁻¹] |
| --- | --- |
| C34U C67G C68G | 0.000147 ± 3.9e-05 |
| U30C U31A A36G C50A U57G | < 1e-05 |
| G37U G44C U57C C67A | < 1e-05 |
| G40U G43U C70G | < 1e-05 |
| A39G G51A C68U | < 1e-05 |
| G40A A53G C58A | 0.000125 ± 3.1e-05 |
| G38C U46G G59A | < 1e-05 |
| G37A G44U G51U G66A | < 1e-05 |
| A33G A53C U65A C67U | < 1e-05 |
| U30C U47A U57C | < 1e-05 |
| U30G G59C U65G | < 1e-05 |
| U31G G32U U45A C71U | 0.000679 ± 0.00029 |
| C34A G44C G59U G63A | < 1e-05 |
| G35C G38C A48U | < 1e-05 |
| U31G A52C C58G | < 1e-05 |
| U30G G40U U57G | < 1e-05 |
| G43C C67A U69G | 0.000151 ± 6e-05 |
| G32A U45C C71U | 7.08e-05 ± 2.9e-05 |
| G37C G62U C71G | < 1e-05 |
| A33G A36C G44C U45A C50U C71A | < 1e-05 |
| C34G U46C | < 1e-05 |

| Variant | self-cleavage kobs at 2500 uM GlcN6P [s⁻¹] |
| --- | --- |
| A33C G38C A48G U56C | < 1e-05 |
| A36G G40C C61U G63C A64C | < 1e-05 |
| A36G G40C G60C | < 1e-05 |
| A36G G43U C70G | < 1e-05 |
| A36U U46A U56G | < 1e-05 |
| U31G G63C | < 1e-05 |
| A36C A42C U54C | < 1e-05 |
| G40A G62U C70G | < 1e-05 |
| G32U G40U U45A | 4.53e-05 ± 1.3e-05 |
| G35C G38U G43U | < 1e-05 |
| A33U G35C G62A | < 1e-05 |
| C34A A48C A64U | < 1e-05 |
| A39G A48C C71G | 4.19e-05 ± 1.9e-05 |
| G35U C61U C70U | < 1e-05 |
| A39G G44U A53G | 0.000722 ± 0.00021 |
| U31C A39G U49G C70U | 2.73e-05 ± 1.4e-05 |
| U30C G38C U46C | < 1e-05 |
| C34G G41U A42U | < 1e-05 |
| A39G A52U C58A | < 1e-05 |
| G38U A42U U49A | < 1e-05 |
| U31C G40U A42U G63C | < 1e-05 |

| Variant | self-cleavage kobs at 2500 uM GlcN6P [s⁻¹] |
| --- | --- |
| U31G G38C G43U U47A A48C | < 1e-05 |
| G37A G41A C61U | < 1e-05 |
| A39C U54A U55C | 0.00249 ± 0.00052 |
| A33U G37C G38C G43A G51A | < 1e-05 |
| U31C G43C U65G | < 1e-05 |
| A39C A53G C58A C61A | < 1e-05 |
| U30C G35U G51A A53U U56C | < 1e-05 |
| G32A G60C C70A | < 1e-05 |
| U31C G32U U54C C58A | 0.000137 ± 4.2e-05 |
| C34A G43A C50G U54C | < 1e-05 |
| C34G G37C G60U G63C | < 1e-05 |
| G35U G41U G62A | < 1e-05 |
| G32U A39U G60U | < 1e-05 |
| G32C G35C G43C C58U U69C | < 1e-05 |
| C34U C50G C68A U69A | 0.000141 ± 4.9e-05 |
| C34U C50G C67A | 8.66e-05 ± 2.1e-05 |
| A33U U55C G60C | < 1e-05 |
| C34U G37C A42U | < 1e-05 |
| A33U G35C C67G | < 1e-05 |

Variants of: B1
Experiment: self-cleavage kobs at 10000 uM GlcN6P; higher = faster cleavage; RNA array
Settings: with glucosamine-6-phosphate
In short: as §1

| Variant | self-cleavage kobs at 10000 uM GlcN6P [s⁻¹] |
| --- | --- |
| G32A U45C | 9.73e-05 ± 2.3e-05 |
| G32U A39C | 7.09e-05 ± 1.1e-05 |
| A39G G44U A53G | 0.000935 ± 0.00017 |
| U30C G35U G51A A53U U56C | < 1e-05 |
| G35U G41U G62A | < 1e-05 |
